# According to publication PMC5714288:
# Biological target: pyruvate kinase isoform M2 (PKM2) (human (endogenous in U1 and U937)) (UniProt P14618)
# Assay: native gel or EMSA
# Chain of pyruvate kinase isoform M2 (PKM2), P14618 1-531 (natural protein; other documents disagree on this pair) (P14618 whole entry, canonical isoform): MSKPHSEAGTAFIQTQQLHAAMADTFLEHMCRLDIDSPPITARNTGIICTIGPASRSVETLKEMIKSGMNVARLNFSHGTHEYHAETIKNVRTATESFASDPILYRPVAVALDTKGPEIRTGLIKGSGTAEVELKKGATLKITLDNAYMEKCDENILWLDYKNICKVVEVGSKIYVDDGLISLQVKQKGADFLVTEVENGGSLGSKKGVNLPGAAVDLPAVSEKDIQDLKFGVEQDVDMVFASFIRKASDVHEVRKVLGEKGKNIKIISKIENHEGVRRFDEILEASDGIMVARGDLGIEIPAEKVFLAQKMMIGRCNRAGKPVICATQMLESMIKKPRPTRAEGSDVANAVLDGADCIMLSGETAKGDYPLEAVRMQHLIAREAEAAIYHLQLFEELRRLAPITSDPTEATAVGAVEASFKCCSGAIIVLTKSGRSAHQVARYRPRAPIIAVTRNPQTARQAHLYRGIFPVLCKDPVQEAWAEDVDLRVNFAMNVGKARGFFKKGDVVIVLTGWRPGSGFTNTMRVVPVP
substance,measurement,value
"pyruvate kinase isoform M2 (PKM2), P14618 1-531 (natural protein; other documents disagree on this pair)",stoichiometry N,2
